Results reported in article PMC6378967.

What was measured:
[1] = biological target: WT human renin (human) (UniProt P00797)
[2] = biological target: biotinylated renin D226A mutant (human); assay: BLI; FortéBio Octet Red96; biotinylated renin D226A (2.5 μg/ml) loaded on streptavidin biosensors; 2-fold dilutions of AGT in 10 mM Tris, pH 7.4, 0.15 M NaCl, 1% BSA; 1:1 binding model, global fit; KD = koff/kon; three independent assays
[3] = biological target: WT human renin (human) (UniProt P00797); remark: listed apart in the source

Sequence of WT human renin (human) (P00797 67-406): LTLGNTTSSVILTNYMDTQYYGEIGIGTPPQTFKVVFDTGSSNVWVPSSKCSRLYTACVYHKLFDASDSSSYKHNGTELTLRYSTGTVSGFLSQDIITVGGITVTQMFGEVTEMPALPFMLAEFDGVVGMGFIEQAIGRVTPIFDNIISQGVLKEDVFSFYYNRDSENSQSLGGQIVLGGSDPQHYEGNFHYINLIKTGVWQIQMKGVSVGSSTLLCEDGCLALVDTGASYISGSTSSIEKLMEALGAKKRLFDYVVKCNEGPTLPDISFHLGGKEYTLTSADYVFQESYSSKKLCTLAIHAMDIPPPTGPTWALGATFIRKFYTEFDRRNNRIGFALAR

## human AGT N331D (natural protein)
[1]
  Km of cleavage of AGT by WT human renin (released Ang I quantified by immunoassay): 2.56 µM
  kcat of cleavage of AGT by WT human renin (released Ang I quantified by immunoassay): 0.14 s⁻¹
  kcat/Km of cleavage of AGT by WT human renin (released Ang I quantified by immunoassay): 50000 M⁻¹ s⁻¹
[2]
  Kd: 0.0915 µM
  koff: 0.000296 s⁻¹
  kon: 3210 M⁻¹ s⁻¹

## spent AGT (human AGT without the N-terminal 10-residue angiotensin I peptide) (domain or fragment)
[3]
  inhibition of renin cleavage of an AGT fusion protein (intact AGT 1.1 μM) by increasing amounts of spent AGT (product inhibition; blocks renin with intact AGT): 0.65 µM

## human AGT N334T (natural protein)
[1]
  Km of cleavage of AGT by WT human renin (released Ang I quantified by immunoassay): 0.76 µM
  kcat of cleavage of AGT by WT human renin (released Ang I quantified by immunoassay): 0.16 s⁻¹
  kcat/Km of cleavage of AGT by WT human renin (released Ang I quantified by immunoassay): 220000 M⁻¹ s⁻¹
[2]
  Kd: 0.0279 µM
  koff: 0.000418 s⁻¹
  kon: 15000 M⁻¹ s⁻¹

## human AGT quadruple glycosylation mutant N14Q/N137Q/N271Q/N295Q (natural protein)
[1]
  Km of cleavage of AGT by WT human renin (released Ang I quantified by immunoassay): 0.67 µM
  kcat of cleavage of AGT by WT human renin (released Ang I quantified by immunoassay): 0.44 s⁻¹
  kcat/Km of cleavage of AGT by WT human renin (released Ang I quantified by immunoassay): 650000 M⁻¹ s⁻¹
[2]
  Kd: 0.0012 µM
  koff: 8.61e-05 s⁻¹
  kon: 74600 M⁻¹ s⁻¹

## fully glycosylated WT human angiotensinogen (AGT) (natural protein)
[1]
  Km of cleavage of AGT by WT human renin (released Ang I quantified by immunoassay): 0.76 µM
  kcat of cleavage of AGT by WT human renin (released Ang I quantified by immunoassay): 0.2 s⁻¹
  kcat/Km of cleavage of AGT by WT human renin (released Ang I quantified by immunoassay): 250000 M⁻¹ s⁻¹

## human AGT N14Q variant (natural protein)
[1]
  Km of cleavage of AGT by WT human renin (released Ang I quantified by immunoassay): 0.56 µM
  kcat of cleavage of AGT by WT human renin (released Ang I quantified by immunoassay): 0.35 s⁻¹
  kcat/Km of cleavage of AGT by WT human renin (released Ang I quantified by immunoassay): 640000 M⁻¹ s⁻¹
[2]
  Kd: 0.0058 µM
  koff: 0.000209 s⁻¹
  kon: 36100 M⁻¹ s⁻¹

## human AGT R83H (natural protein)
[1]
  Km of cleavage of AGT by WT human renin (released Ang I quantified by immunoassay): 1.42 µM
  kcat of cleavage of AGT by WT human renin (released Ang I quantified by immunoassay): 0.2 s⁻¹
  kcat/Km of cleavage of AGT by WT human renin (released Ang I quantified by immunoassay): 140000 M⁻¹ s⁻¹
[2]
  Kd: 0.0446 µM
  koff: 0.000606 s⁻¹
  kon: 14000 M⁻¹ s⁻¹
